B1: BTN2A1 ID271 (protein)
chain: KLQKEKKILSGEKEFERETREIALKELEKERVQKEEELQVKEKLQEELRWRRTFLHAVDVVLDPDTAHPDLFLSEDRRSVRRCPFRHLGESVPDNPERFDSQPCVLGRESFASGKHYWEVEVENVIEWTVGVCRDSVERKGEVLLIPQNGFWTLEMHKGQYRAVSSPDRILPLKESLCRVGVFLDYEAGDVSFYNMRDRSHIYTCPRSAFSVPVRPFFRLGCEDSPIFICPALTGANGVTVPEEGLTLHRVGTHQSL
modifications: HMBPP
B2: BTN2A1 ID271 (protein)
chain: B1 chain
modifications: 4-M-HMBPP

Molecular target: BTN3A1 full intracellular domain (BFI) (Homo sapiens, UniProt O00481)
Test: ITC

Sequence of BTN3A1 full intracellular domain (BFI) (O00481 272-513): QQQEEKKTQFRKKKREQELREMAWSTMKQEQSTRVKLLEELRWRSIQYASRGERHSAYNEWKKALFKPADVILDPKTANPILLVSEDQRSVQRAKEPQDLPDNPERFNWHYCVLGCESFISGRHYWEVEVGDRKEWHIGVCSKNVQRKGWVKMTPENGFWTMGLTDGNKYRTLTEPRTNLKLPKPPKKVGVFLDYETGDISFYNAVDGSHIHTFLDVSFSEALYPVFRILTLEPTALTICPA

Binder | Kd
B1 | 0.78 µM
B2 | 190 µM
